Test results taken from article PMC3888430, “Sorcin Links Calcium Signaling to Vesicle Trafficking, Regulates Polo-Like Kinase 1 and Is Necessary for Mitosis” (PLoS ONE, 2014).

Key:
Experiment in all cases: peptide or protein array; ProtoArray human protein microarray (proteins arrayed in duplicate on nitrocellulose coated glass slide, native conditions) probed with 1 µM AlexaFluor 532-A2C sorcin in the presence of either 1 mM EDTA or 1 mM CaCl2
Settings in all cases: both partners purified
[1] = molecular target: T1, CSNK2A2, human, on ProtoArray (human, UniProt P19784 1-350)
T1 construct: CSNK2A2 (casein kinase II subunit alpha'), human, full length protein of the ProtoArray; source: bought: ProtoArray human protein microarray (Life technologies), individually purified and arrayed

[2] = molecular target: T2, Aurora B kinase, human, on ProtoArray (human, UniProt Q96GD4 1-344)
T2 construct: Aurora B kinase, human, full length protein of the ProtoArray; source: bought: ProtoArray human protein microarray (Life technologies), individually purified and arrayed

[3] = molecular target: T3, Polo-like kinase 1 (PLK1), human, on ProtoArray (human, UniProt P53350 1-603)
T3 construct: Polo-like kinase 1, human, full length protein of the ProtoArray; In the functional row this id stands for purified recombinant PLK1 bought from Cell Signaling Technology (#7728); source: bought: ProtoArray human protein microarray (Life technologies), individually purified and arrayed

[4] = molecular target: T4, Annexin 11, human, on ProtoArray (human, UniProt P50995 1-505)
T4 construct: Annexin 11, human, full length protein of the ProtoArray; source: bought: ProtoArray human protein microarray (Life technologies), individually purified and arrayed

[5] = molecular target: T5, CSNK2A1, human, on ProtoArray (human, UniProt P68400 1-391)
T5 construct: CSNK2A1 (casein kinase II subunit alpha), human, full length protein of the ProtoArray; source: bought: ProtoArray human protein microarray (Life technologies), individually purified and arrayed

[6] = molecular target: T6, Aurora A kinase, human, on ProtoArray (human, UniProt O14965 1-403)
T6 construct: Aurora A kinase, human, full length protein of the ProtoArray; source: bought: ProtoArray human protein microarray (Life technologies), individually purified and arrayed
T6 sequence (looked up): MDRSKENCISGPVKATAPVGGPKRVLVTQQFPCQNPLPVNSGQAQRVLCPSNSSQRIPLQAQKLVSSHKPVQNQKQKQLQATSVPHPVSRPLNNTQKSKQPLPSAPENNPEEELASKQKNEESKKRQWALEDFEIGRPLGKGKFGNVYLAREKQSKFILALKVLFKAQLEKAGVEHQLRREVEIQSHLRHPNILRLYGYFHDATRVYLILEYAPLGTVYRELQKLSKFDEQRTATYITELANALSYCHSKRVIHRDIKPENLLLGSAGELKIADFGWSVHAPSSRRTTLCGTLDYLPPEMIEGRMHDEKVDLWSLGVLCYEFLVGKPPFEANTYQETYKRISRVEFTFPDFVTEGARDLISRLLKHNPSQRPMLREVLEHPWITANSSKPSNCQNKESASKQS

T1 sequence (P19784 whole entry): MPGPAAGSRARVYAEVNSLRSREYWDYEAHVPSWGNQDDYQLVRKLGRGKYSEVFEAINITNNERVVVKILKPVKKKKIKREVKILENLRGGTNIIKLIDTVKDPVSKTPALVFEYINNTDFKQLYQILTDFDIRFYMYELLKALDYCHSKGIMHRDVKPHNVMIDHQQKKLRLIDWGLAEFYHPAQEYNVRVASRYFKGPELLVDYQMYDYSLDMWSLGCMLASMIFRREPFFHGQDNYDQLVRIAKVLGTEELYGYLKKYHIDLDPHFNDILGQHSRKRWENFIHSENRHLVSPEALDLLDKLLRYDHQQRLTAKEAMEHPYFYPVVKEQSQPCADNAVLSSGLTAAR
T4 sequence (P50995 whole entry): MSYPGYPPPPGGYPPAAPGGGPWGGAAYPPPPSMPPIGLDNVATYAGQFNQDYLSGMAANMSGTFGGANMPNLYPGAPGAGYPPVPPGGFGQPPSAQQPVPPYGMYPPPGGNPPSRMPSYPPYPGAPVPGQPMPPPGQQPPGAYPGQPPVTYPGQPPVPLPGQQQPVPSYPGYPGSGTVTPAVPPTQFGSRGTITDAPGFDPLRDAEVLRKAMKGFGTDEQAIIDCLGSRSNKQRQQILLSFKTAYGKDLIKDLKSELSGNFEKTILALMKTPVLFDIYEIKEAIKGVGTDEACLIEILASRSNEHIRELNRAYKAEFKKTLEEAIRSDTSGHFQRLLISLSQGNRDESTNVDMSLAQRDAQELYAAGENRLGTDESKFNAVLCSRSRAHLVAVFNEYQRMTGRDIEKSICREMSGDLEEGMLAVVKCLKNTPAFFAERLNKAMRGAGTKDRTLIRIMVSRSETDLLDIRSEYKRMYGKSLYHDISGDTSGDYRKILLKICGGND
T3 sequence (P53350 whole entry): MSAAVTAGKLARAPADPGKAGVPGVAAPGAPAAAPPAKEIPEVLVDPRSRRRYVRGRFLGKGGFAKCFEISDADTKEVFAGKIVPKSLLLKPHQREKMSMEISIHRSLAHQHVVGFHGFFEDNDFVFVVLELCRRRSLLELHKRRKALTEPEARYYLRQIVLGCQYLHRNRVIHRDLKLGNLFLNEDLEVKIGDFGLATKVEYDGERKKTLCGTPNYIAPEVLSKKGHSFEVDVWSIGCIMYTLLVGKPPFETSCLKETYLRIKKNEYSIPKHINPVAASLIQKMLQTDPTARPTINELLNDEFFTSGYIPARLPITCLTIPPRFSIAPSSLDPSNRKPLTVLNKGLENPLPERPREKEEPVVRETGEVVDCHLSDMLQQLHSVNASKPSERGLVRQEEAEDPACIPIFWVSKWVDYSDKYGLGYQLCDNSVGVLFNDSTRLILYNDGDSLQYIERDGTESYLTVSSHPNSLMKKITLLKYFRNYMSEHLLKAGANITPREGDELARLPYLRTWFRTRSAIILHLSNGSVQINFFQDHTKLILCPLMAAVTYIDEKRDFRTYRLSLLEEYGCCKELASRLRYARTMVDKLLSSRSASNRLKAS
T5 sequence (P68400 whole entry): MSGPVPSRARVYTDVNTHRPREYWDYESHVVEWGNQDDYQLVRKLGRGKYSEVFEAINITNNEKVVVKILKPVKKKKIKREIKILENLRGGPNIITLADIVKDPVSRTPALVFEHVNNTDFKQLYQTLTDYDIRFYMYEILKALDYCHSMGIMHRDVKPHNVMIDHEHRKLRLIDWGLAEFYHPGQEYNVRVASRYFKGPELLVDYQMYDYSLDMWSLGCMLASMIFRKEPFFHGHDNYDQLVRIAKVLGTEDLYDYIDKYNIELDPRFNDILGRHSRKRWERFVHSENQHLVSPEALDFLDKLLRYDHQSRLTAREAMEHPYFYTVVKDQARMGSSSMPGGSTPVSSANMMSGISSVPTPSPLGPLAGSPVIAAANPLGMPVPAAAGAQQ
T2 sequence (Q96GD4 whole entry): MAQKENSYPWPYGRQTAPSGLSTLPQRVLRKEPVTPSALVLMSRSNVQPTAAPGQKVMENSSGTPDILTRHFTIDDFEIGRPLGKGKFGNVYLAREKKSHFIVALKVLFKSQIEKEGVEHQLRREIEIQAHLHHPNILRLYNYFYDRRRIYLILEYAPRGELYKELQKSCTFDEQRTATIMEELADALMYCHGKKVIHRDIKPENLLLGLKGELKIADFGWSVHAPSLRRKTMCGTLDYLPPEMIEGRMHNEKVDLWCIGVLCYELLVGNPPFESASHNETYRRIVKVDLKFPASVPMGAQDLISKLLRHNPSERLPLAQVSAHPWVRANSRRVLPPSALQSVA

B1: AlexaFluor 532-A2C sorcin (natural protein, human)
chain: MCYPGHPGAGGGYYPGGYGGAPGGPAFPGQTQDPLYGYFAAVAGQDGQIDADELQRCLTQSGIAGGYKPFNLETCRLMVSMLDRDMSGTMGFNEFKELWAVLNGWRQHFISFDTDRSGTVDPQELQKALTTMGFRLSPQAVNSIAKRYSTNGKITFDDYIACCVKLRALTDSFRRRDTAQQGVVNFPYDDFIQCVMSV
modifications: AlexaFluor 532 C5-maleimide on thiol groups (A2C mutant made for the conjugation)
notes: In the functional row this id stands for unlabelled human wt sorcin (HS) from the same expression system; also called A2C-sorcin-AlexaFluor 532 maleimide; source: E. coli BL21(DE3), purified according to Meyers et al; labelled with AlexaFluor 532 C5-maleimide
binding result [1]: binds
binding result [2]: binds
fold increase of the interaction with 1 mM calcium against EDTA [3]: 1.5 fold
binding result [4]: binds
binding result [5]: binds
binding result [6]: binds
